Data: patent US20240336672A1 (INSTITUT PASTEUR, published 2024)
Positions count from the first letter of the chain named.

B1: ADG-2 (antibody, V domains shown)
VH: EVQLVESGGGLVKPGGSLRLSCAASGFTFSSYYMNWVRQAPGKGLEWVSSISEDGYSTYYPDSLKGRFTISRDSAKNSLYLQMNSLRADDTAVYYCARDFSGHTAWAGTGFEYWGQGTLVTVSS
VL: QSVLTQPPSVSGAPGQRITISCTGSSSNIGAGYDVHWYQQLPGTAPKLLIYGSSSRNSGVPDRFSGSKSGTSASLAITGLQAEDEADYYCQSYDSSLSVLYTFGTGTKVTVL
B2: Adintrevimab (antibody, V domains shown)
VH: B1 VH
VL: B1 VL
B3: Cv2.1353 (recombinant human IgG1) (antibody, V domains shown)
VH: EVQLVESGGGLVQPGGSLRLSCAASGVTVSSNYMNWVRQAPGKGLEWVSVIYSGGSTFYADSVKGRFIISRDNSKNTLYLQMNSLKTEDTAVYYCARDLGPMGFDIWGQGTMVTVSS
VL: DIQMTQSPSFLSASVGDRVTITCRASQGISSYLAWYQQKPGKAPKLLIYAASTLQSGVPSRFSGSGSGTEFTLTISSLQPEDFATYYCQQLNSDPPVTFGPGTKVDIKR
B4: Cv2.1169 (recombinant human IgG1) (antibody)
heavy: QVQLVQSGPEVKKPGTSVKVSCKASGFTFTTSAVQWVRQARGQRLEWIGWIVVGSGNTNYAQKFQERVTITRDMSTTTAYMELSSLRSEDTAVYYCAAPYCSGGTCLDGFDIWGQGTMVTVSSASTKGPSVFPLAPSSKSTSGGTAALGCLVKDYFPEPVTVSWNSGALTSGVHTFPAVLQSSGLYSLSSVVTVPSSSLGTQTYICNVNHKPSNTKVDKKVEPKSCDKTHTCPPCPAPELLGGPSVFLFPPKPKDTLMISRTPEVTCVVVDVSHEDPEVKFNWYVDGVEVHNAKTKPREEQYNSTYRVVSVLTVLHQDWLNGKEYKCKVSNKALPAPIEKTISKAKQPREPQVYTLPPSRDELTKNQVSLTCLVKGFYPSDIAVEWESNGQPENNYKTTPPVLDSDGSFFLYSKLTVDKSRWQQGNVFSCSVMHEALHNHYTQKSLSLSPGK
light: not shown
notes: also called Cv2.1169 IgG
B5: Cv2.3235 (recombinant human IgG1) (antibody, V domains shown)
VH: EVQLVESGGGLIQPGGSLRLSCAASGFTVSRNYMSWVRQAPGKGLEWVSVIYSGGSTFYADSVKGRFTISRDNSKNTLYLQMNSLRAEDTAVYYCARDGDYYGMDVWGQGTTVTVSS
VL: DIQMTQSPSFLSASVGDRVTITCRASQGISSFLAWYQQKPGKAPKLLIYGASTLQSGVTSRFSGSGSGTEFTLTISSLQPEDFATYYCQRLDSYPPITFGQGTRLEIKR
B6: Cv2.3194 (recombinant human IgG1) (antibody, V domains shown)
VH: B5 VH with F27I, S30T, R31S, S53P, G99L, D100V, Y101V
VL: EIVLTQSPGTLSLSPGERATLSCRASQSVSSSYLAWYQQKPGQAPRLLIYGASSRATGIPGRFSGSGSGTDFTLTISRLEPEDFAIYYCQQGVTFGGGTKVEIKR
B7: Cv2.5213 (recombinant human IgG1) (antibody, V domains shown)
VH: B5 VH with R31S, V50L, F58Y, G99L, D100N, T111A
VL: B3 VL with F10S, E70D, N92D, D94Y, P95S, V97F
B8: COV2-2196 (parental IgG1 version) (antibody, V domains shown)
VH: QMQLVQSGPEVKKPGTSVKVSCKASGFTFMSSAVQWVRQARGQRLEWIGWIVIGSGNTNYAQKFQERVTITRDMSTSTAYMELSSLRSEDTAVYYCAAPYCSSISCNDGFDIWGQGTMVTVSS
VL: not shown
B9: TIX (antibody, V domains shown)
VH: B8 VH
VL: not shown
notes: also called Tixagevimab
B10: Cv2.5179 (recombinant human IgG1) (antibody, V domains shown)
VH: B8 VH with M2V, M30T, I53V, Y100H, I104T, N107Y, G109A
VL: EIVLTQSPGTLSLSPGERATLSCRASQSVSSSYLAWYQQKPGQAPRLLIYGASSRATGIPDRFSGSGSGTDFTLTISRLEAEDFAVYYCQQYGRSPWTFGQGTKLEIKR
notes: also called Cv2.5179 IgG

Tests used:
[1] = molecular target: T1, SARS-CoV-2 S1 domain, Wuhan (SARS-CoV-2, UniProt P0DTC2 16-681); experiment: ELISA; design: unit not given beside the values
[2] = molecular target: T1, SARS-CoV-2 S1 domain, Wuhan; experiment: ELISA
[3] = molecular target: T1, SARS-CoV-2 S1 domain, Wuhan; experiment: SPR (Biacore), antibody immobilised
[4] = molecular target: T2, SARS-CoV-2 spike, Wuhan strain, on virus or pseudotyped particles (SARS-CoV-2, UniProt P0DTC2 14-1273); experiment: cell-based or functional assay
[5] = molecular target: T1, SARS-CoV-2 S1 domain, Wuhan; experiment: ELISA, coated antigen; note: test concentration or dose not given here
[6] = molecular target: T2, SARS-CoV-2 spike, Wuhan strain, on …; experiment: cell-based or functional assay; remark: listed apart in the source
[7] = molecular target: T1, SARS-CoV-2 S1 domain, Wuhan; experiment: SPR (Biacore), IgG immobilized, viral protein as analyte
[8] = molecular target: T1, SARS-CoV-2 S1 domain, Wuhan; experiment: SPR (Biacore), antibody coupled to CM5 chip, viral protein as analyte
[9] = molecular target: SARS-CoV-2 RBD domain, Wuhan (SARS-CoV-2); experiment: RBD-ACE2 competition ELISA; design: unit not given beside the values
[10] = molecular target: SARS-CoV-2 RBD domain, Wuhan (SARS-CoV-2); experiment: ELISA; design: unit not given beside the values
[11] = molecular target: SARS-CoV-2 RBD domain, Wuhan (SARS-CoV-2); experiment: RBD-ACE2 competition ELISA
Throughout, for OD405nm: test concentration or dose not given here.
Throughout, for PseudoNEUT (%): test concentration or dose not given here.
Throughout, for S-FuseNEUT (%): test concentration or dose not given here.

Row | Binder | OD405nm [2] | Kd [3] | PseudoNEUT (%) [4] | S-FuseNEUT (%) [4] | ELISA OD [5] | further results
1 | B1 |  |  |  |  |  | AUC [1]: 3
2 | B2 | 3.3 |  |  |  |  | 
3 | B3 |  | 6 nM | 100% | 100% | 3.5 OD | 
4 | B4 | 3.3 |  | 100% | 95% | 3.5 OD | Pseudoneutralization IC50 [6]: 3 ng/mL; Pseudoneutralization IC90 [6]: 12.4 ng/mL; S-Fuse neutralization IC50 [6]: 1.5 ng/mL; S-Fuse neutralization IC90 [6]: 3.5 ng/mL; Kd [7]: 1.44 nM; koff [7]: 0.000354 s⁻¹; kon [7]: 246000 M⁻¹ s⁻¹; Kd [8]: < 0.001 nM
5 | B5 |  | 18.9 nM | 100% | 100% | 3.9 OD | 
6 | B6 | 3.4 |  | 100% | 100% | 3.7 OD | Pseudoneutralization IC50 [6]: 18.9 ng/mL; Pseudoneutralization IC90 [6]: 241 ng/mL; S-Fuse neutralization IC50 [6]: 3 ng/mL; S-Fuse neutralization IC90 [6]: 9.8 ng/mL; Kd [7]: 1.2 nM; Kd [8]: < 0.001 nM
7 | B7 |  | 520 nM | 100% | 96% | 3.5 OD | 
8 | B8 |  |  |  |  |  | AUC [1]: 3
9 | B9 | 3.3 |  |  |  |  | 
10 | B10 |  |  |  |  |  | AUC (Blocking) [9]: 103; AUC (Binding) [10]: 11; IC50 (read off the curve) [11]: ~600 ng/mL
